Test: yeast display, Sf9 membrane polyspecificity reagent, FACS + sequencing; frameworks hold sequencing errors
Method in brief: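 Galactose-induced (36–48 hours) yeast carrying a synthetic nanobody display library were exposed to 10% biotinylated, detergent-solubilized Sf9 membrane reagent at 4 °C for 1 hour. FACS followed streptavidin microbead enrichment, using low and high (top ~1%) gates for expression (anti-HA) and reagent binding (streptavidin). Colony PCR, MiSeq 2 × 250 sequencing and CDR-length filtering followed. Labels for polyreactivity reflect the gate of origin.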

Sequence | polyreactivity (PSR sort gate)
QVQLVDSGGGLVQAGGSLRLSCAASVFTFYCNAMGWYRQAPGKERELVAAITSTGNTYYADSVKGRFTISRDNAKNTVYLQMNSLKPEDTAVYYCARRGDILYDYWGQGTQVTVSS | low polyreactivity
QVQLVESGGGLVQAGGSLRLSCAASGSTFDPYAMGWYRQAPGKESELVAAISRNGGRTYYADSVKGRFTISRDNAKNTVYLQMNSLTPEDTAVYYCAARSTGYGSTGRLLWYGHWGQGTQGTVSS | high polyreactivity
QVQLVESGGGLFQAGGSLRLSCAASGFTFARYAMGWYRQAPGKEWELVARISWSGGSTYYADSVKGRFTISRDYAKNTFYLQMYSLKPQVTEVYYCAADGWYYRYPRDDYWGQGTQVTVSS | low polyreactivity
QVQLVESGGGLVQAGGSLRLSCAASGSTFILNAMGSYRQAPGKERELVAAISLSGGSTYYADSVKGRFTISRDNAKNTVYLQMNSQKPEDTAVYYCAAEQWYDNYLEYDYWGQGTQVTLSS | high polyreactivity
QVQLVESGGGLVQAGGSLRLSCASSGIIFYKYAMGWYRQAPGKERELVAVISRGGGSTYYADSVKGRFTISRDNAKNTVYLQMNSLKPEDTAVYYCAADPRVTRSYTYDYWVQGTQVTVSS | high polyreactivity
QLQLVESGGCLVQAGGSLRLSCAASGIIFVVNDMGWYRQAPGNARELVADISDSGGSTNYADSVKGRFTISRDNAKNSVYLQMNSLKPEDTAVYYCAADSADPTEYDYWGQGTQVTLSS | low polyreactivity
LVQLVESGGGLVQAGGSLRLICAASGITISYNAMGWYRQAPGKERELVAAITGSDGITYYADSVKGRFTISRDNAKNTVYLEMNSLKPEDTAVYYCAAEWWDYWYEYDYWGQGTQVTVSS | high polyreactivity
QVQLVESGGGLVHAGGSLRLSCAASGIIFVLHAMGWYRQAPGQERELVASISGIGGSTYYADSEKGRFTISRDNAKNTVYLQMNSLKPEDTAVYYCAARGWLSRYGYWGHGTQVTVSS | high polyreactivity
QVHRVESGGGLVQAGGSLRLSCDASGNIFYDYAMGWYRQGPGKERELVAAIDLSDGSTYYSDSVKGRFTISRDNAKNTVYFQMNSLKPDDTAVYYCAADIIAAWTSDYYYWGQGSQVTVSS | high polyreactivity
QVHLVESGGGLVQAGGSLRLSCAASGRIFRTYAMGWYRQAPGTERELVASITTSSDSPYYADSVKGRFTISRDNAKNTVYLQMNSLKPEDTAVYYCAADGDHPWWSQYDYWGQGTQVTVSS | low polyreactivity
QVQLVESGGGLVQAGGSLRLSCAASGLIFRHYAMGWYRQAPGKERELVAAINWDGTSTDYADSVKGRFTISRDNAKNTVYLQMNSLKPEDTAVYYCAAEGHTAFVVYRVSPLQYDYWGHGTQVTVSS | low polyreactivity
QVQLVESGGGLVQAGGSLRLICAASGITFSYYALGRSRQAPGKERELVAAISVTGGSTYYADSVKGRFTISRDNAKNTVYLQMNSLKPEDTAVYYCAADSYYYDGDYWGQGTQVTVSS | high polyreactivity
QLQLVESGGGLVQAGGSLRLSCASTGSIFRPSPMGWYRPAPGKDRELVPDITWSGGSTYYADSVKGRFTISRDNAKNTVYLQMNSLKPEDTAVYYCAARFSYWARNSEYWGQGTQVTVSS | low polyreactivity
QVQLVESGGVLDQAGGSLRLSCAASGRIYFNKAMGWYRPAPGKEWELVAAINAGGRTNYADSVKGRFTISRDNEKNTVFLHMTSLKQEDTSVYYCNADDNPVWEYDYWGQGTQVTVSS | low polyreactivity
QVQLVESGGGLVQAGGSLRLSCADSVFTFGYYAMGWYRQAPGKERELVAAISRNGGRTYYADSVKGRFTISRDNAKNNVYLQMNSLKTVYTAVHYCNALLFFLNRVWSFDYWGQGTQVTVSS | high polyreactivity
QVQLVESGGGLVQAGGSLRLSCAGSGFTFQYYAMGWYRQAPGKERELVAAMSWGGGSTYYADSVKGRFTISRDNAKKTVYLQMNSLKPEDTAVYYCNAYDYLSAGDDYWGQGTQVTVSS | low polyreactivity
QVQLVESGGGLVQAGGSLRLSCAASGSTFGYYARGWYRQAPGKERELVAAISWSGTRTYYADSVKGRFTISRDNATNTVYLQMNSLKPEDTAVYYCAVRISRPRVYYYWGQGTQVTVSS | high polyreactivity
QVQLVESRGGLVQAGGSLRLSCAASGSTFGPYTMGWYRQAPGKERELDAAISWNGGRTSYADSVKGRFTLSRDNAKNTVYLQKNSLKPEDTAGYYCAAGYFVGIYKRFYWGQGTQVTVSS | high polyreactivity
QVQLVESGGGLVQAGGSLRLSCAASGSTSVGNAMGWYRQAPGKERELVAAMSRIGGTTYYADSVKGRFTISRDNAKNTVYLQMNSLKPEDTAVYYCNVLKRYWSGRVDYWGQGTQVTVSS | high polyreactivity
QVQLVESGGGLVQAGGSLRLSCAASGSIFVPYAMGWYRQAPGKERELVAVIRYRGGTTYYADSVKGRFTLSRDNAKNTVYLQMNSLKPEDTAVYYCEASARRYPPAAGVPYRYDYWGQGTQVTVSS | high polyreactivity
QVQLEDSGGGLVQAGGSLRLSCAASGFIFLPNAMGWYRQAPGKERELVAAISTSDGSTYYADSVKGRFTISRDNAKNTVYLQMNSLKPEDTAVYYCAASYQFYRKYAYDYWGQGTQVTVSS | low polyreactivity
QVQLVESGGGLVQAGGSLRLSCAASGSIFRQNVMGWYRQAPGKERELVAAISRNGGSTYYADSVKGRFTISRDNAKNTVYFQMNSLKPEDTGVYYCAARGFRRYDYWGQGTQVTVSS | high polyreactivity

Sequence | polyreactivity (PSR sort gate)
QVQLVESGGGLVQAGGSLRLSCAASGRTFGQYAMGWYRQAPGKERELVAAISWGGGRTYYADSVKGRFTISRDNAKNTVYLQMNSLKPEDTAVYYCNAVYSPRYYVGGYDYWGQGTQVTVSS | high polyreactivity
QVQLVESGGGLVHAGGSLRLSCAASGFTFYYNDMGWYRQAPGKERELVAAIRWSGGNTYYADSVKGRFKISRDNAKNTVYLQMNSLKPEDTAVYYCSAGTQWYSQVYIYYYWGQGTQVTVSS | low polyreactivity
QVQLVESGGGLVQAGGSLRLSCAASGSIFYSYGMGWYRQAPGKERELVAAITSSGGGTYYADSVKGRFTISRDNAKNTVYLQMNSLKPEDTAVYYCAADDRNYNYYPTFYYWGQGTQVTVSS | low polyreactivity
QVQLVESGGGLVQAGGSLRLSCAASGSIFYVNAMGWYRQAPGKERELVASITASGGTTYYADSVKGRFTISRDNAKNNVYLQMNSLKPEDTAVYYCAATFIQVVVNVQLYDYDYWGQGTQVTVSS | low polyreactivity
QVQLVESGGGLVQAGGSLRLSCAASGLTSNGYHMGWYRQAPGKERELVAGITSGGSTYYADSVKGRFTISRDNAKNTVYLQMNSLKPEDTAVYYCNADVTYYIVWEYDYWGQGTQVTVSS | low polyreactivity
QVQLVESGGGLVQAGGSLRLSCAASGRIFRRYAMGWYRQAPGKERELVAAISSGGSTNYADSVKGRFTLSRDNAKNTVYLQMNSLKPEDTAVYYCAARRTATTSRAYYYWGQGNQVTVSS | high polyreactivity
QVQLVESGGGLVQAGGSLRLSCAASGRIFDGNAMGWYRKAPGKERELVATITRGGRTNYADSVKGRFTISRDNAKNTVYLQMNSLKPEDTAVYYCNAPIYGRYYDLDYWGQGTQVTVSS | low polyreactivity
QVQLVESCGGLVQAGGSLRLSCAASGIIFWWYTMGWYRQAPGKERELVAAISRGGNTNYADSVKGRFTISRDNAKNTVYLQMNSLKTEDTAFYYCAADRHYRFWQYDYWGQGTQVTVSS | high polyreactivity
QVQLVESGGGLVQAGGSLRLSCAASGFTFLKYAMGGYRQAPGKERDLVARITSGGRTYYADSVKGRFTISRDNAKNTVYLQMNSLKPEDTAVYYCNAVKSYASLYAVFYDWGQGTQVTVSS | high polyreactivity
QVQLVESGGGLVQPGGSLRLSCAASGRIFGWYAMGWYRQAPGKERELVAAITWSGTSTYYADSVKGRFTISRDNAKNTVYLQMNSLKPEDTAVYYCAADSLRGSAPTYYSTLEYWGQGTQVTVSS | low polyreactivity
QVQLVESGGGLVQAGGSLRLSCAASGRTLTIYAMGWYRQAPGKERELVATIRSSGSTNYADSVKGRFTISRDNAKNTVYLQMNSLKPEDTAVYYCSARGFYPTNVGKYNYWGQGTQVTVSS | high polyreactivity
QVQLVESGGGLVQAGGSLRLSCAASGRTSFWNAMGWYRQAPGKERELVAAISASVGRTYYADSVKGRFTISRDNAKNTVYLQMNSLKPEDTAVYYCAKVYHAGTGYPSLGLDYWGQGTQVTVSS | low polyreactivity
QVQVVESGGGLVQAGGSLRLSCAASGSIFGRYAMGWYRQAPGKERELVAGITRGGSPYYADSVKGRFTISRDNAKNTVYLQMNSLKPEDTAVYYCNRAARYGEYDYWGQGTQVTVSS | high polyreactivity
QDLLVESGGGLVQAGGSLRLRCAASGITFAFYTMGWYRQAPGKPSELVTAISYSGGRTYNADSVKGRFTISRDNAKYTVYVQMLSLKPEDTAVYYCNTRYRGSYDYWGQGTQVTVSS | high polyreactivity
QVQLVESGGGLVQAGGSLRLSCAASGRTFPFYAMGWYRQPPAKERELVAVITWRGSNTYADSVKGRFTISRDNAKNTVYLQMNSLKPEVTAVYYCAADAWRSYGYRAYDYWGQVTQVTVSS | low polyreactivity
QVQLVESGGGLGQAGGSLRLSCAASGRIFRDYAMGWYRQAPGKERQLVAAISWSGGSSYYADSVKGRFTISRDNAKNTVDLQMNSLKQEDTAVYYCAVEYYGGDSYRYDYWGQGTQVTVSS | low polyreactivity
QVQLVESGGGLVQAGGSLRLSCADSGRTSYYYVMGWYRQAPGKERELVAAIRSRGGSTYYADSVKGRFTISRDNAKNTVYLQMNSLKPEDTAVYYCAARYGFWSYDFGYWGLGTQVTVSS | high polyreactivity
QVQLVESGGGLVQAGGSLRLSCAASGIIMPSYVMGWYRQAPGKERELVAAITRSGGNTYYADSVKGRFTISRDNAKNTVYLQMNSLKPEDTAVYYCAARAPVRRYRAYEFDYWGQGTQVTVSS | high polyreactivity
QVQLVESGGGLVQAGGSLRLSCAASGSIFIPYAMGWYRQAPGKERELVAAISGSGTSTNYADSVKGRFTISRDNAKNTVYLQMNSLKPEDTAVYYCAARLPYGYLRSKFYYWGQGTQVTVSS | high polyreactivity
QVQLVESGGGLVQAGGSLRLSCAASGRTFVSYVMGLYRQAPGKERELVAAITWRGGSTYYADSVKGRFTISRDNAKNTVYLQMNSLKPEDTAVYYCNADYRYIWTYWGWTIYDYWGQGTQVTVSS | high polyreactivity
QVQLVESGGGLVQAGGSLRLSCAASGRTFVRNAMGWYRQAPGKERELVAGIRRGGTTNYADSVKGRFTISRDNAKNTVYLQMNSLKPEDTAVYYCNALYRYGWLYAPKYNSWGQGTQVTVSS | high polyreactivity

Reference: the nanobody polyreactivity screen of Harvey et al. (2022)
